Data on 50 sequences can be found in the supplement of paper PMC9112550, “Optimization of the antimicrobial peptide Bac7 by deep mutational scanning” (BMC Biology, 2022).

The data set deals with Escherichia coli TOP10. The experiment in a line: shrunken log2 fold change of peptide-encoding DNA abundance (4.5 h post-induction vs induction); higher = less antimicrobial activity (less host growth inhibition). The conditions noted are these: time post-induction: 4.5 h; library: site-saturation at positions 5, 18, 19, 20.
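Further: peptides expressed intracellularly from a pBAD plasmid library in pooled LB shake-flask culture, induced with 0.3% L-arabinose, DNA abundance read by NGS, three biological replicates, DESeq2 with apeglm shrinkage.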

With RRIRLRPPRLPRPRPRPYLTPRP, the “shrunken log2 fold change” value is -0.663.

RRIRRRPPRLPRPRPRPDVQPRP: the “shrunken log2 fold change” value is -0.0867.

For the sequence RRIRERPPRLPRPRPRPFKSPRP, the “shrunken log2 fold change” value is -0.0568.

For the sequence RRIRARPPRLPRPRPRPGMVPRP, the “shrunken log2 fold change” value is 0.509.

Take RRIRSRPPRLPRPRPRPRSSPRP: the “shrunken log2 fold change” value was -0.269.

Regarding RRIRQRPPRLPRPRPRPPLHPRP, the “shrunken log2 fold change” value is 0.24.

In the case of RRIRCRPPRLPRPRPRPLRMPRP, the “shrunken log2 fold change” value is 0.461.

For RRIRARPPRLPRPRPRPTPVPRP, the “shrunken log2 fold change” value is 0.696.

RRIRARPPRLPRPRPRPDLCPRP: the “shrunken log2 fold change” value was 0.393.

For RRIRLRPPRLPRPRPRPRLEPRP, the “shrunken log2 fold change” value came to 0.348.

On to RRIRKRPPRLPRPRPRPEKYPRP, for which the “shrunken log2 fold change” value was -0.0153.

With RRIRNRPPRLPRPRPRPPKQPRP, the “shrunken log2 fold change” value was found to be 0.22.

Take RRIRARPPRLPRPRPRPGEPPRP: the “shrunken log2 fold change” value stood at 0.601.

As to RRIRNRPPRLPRPRPRPEKGPRP, the “shrunken log2 fold change” value is -0.0357.

Take RRIRIRPPRLPRPRPRPQGYPRP: the “shrunken log2 fold change” value is -0.0157.

As to RRIRCRPPRLPRPRPRPFTEPRP, the “shrunken log2 fold change” value is -0.28.

As to RRIRKRPPRLPRPRPRPEDCPRP, the “shrunken log2 fold change” value is -0.00264.

For RRIRLRPPRLPRPRPRPKWTPRP, the “shrunken log2 fold change” value was determined as 0.0422.

RRIRDRPPRLPRPRPRPFRHPRP: the “shrunken log2 fold change” value is -0.125.

Regarding RRIRFRPPRLPRPRPRPTVKPRP, the “shrunken log2 fold change” value was -0.163.

Regarding RRIRPRPPRLPRPRPRPMTVPRP, the “shrunken log2 fold change” value was -0.038.

With RRIRPRPPRLPRPRPRPDKKPRP, the “shrunken log2 fold change” value is -0.429.

Take RRIRHRPPRLPRPRPRPVHAPRP: the “shrunken log2 fold change” value turned out to be 0.346.

For the sequence RRIRVRPPRLPRPRPRPNCIPRP, the “shrunken log2 fold change” value is -0.213.

For the sequence RRIRQRPPRLPRPRPRPTSYPRP, the “shrunken log2 fold change” value is -0.154.

With RRIRQRPPRLPRPRPRPVYIPRP, the “shrunken log2 fold change” value is -0.214.

Regarding RRIRYRPPRLPRPRPRPTYQPRP, the “shrunken log2 fold change” value is -0.00459.

RRIRMRPPRLPRPRPRPHSYPRP: the “shrunken log2 fold change” value is -0.0152.

RRIRERPPRLPRPRPRPCKAPRP: the “shrunken log2 fold change” value was -0.0137.

Consider RRIRQRPPRLPRPRPRPARTPRP, for which the “shrunken log2 fold change” value was found to be 0.167.

For RRIRHRPPRLPRPRPRPEQGPRP, the “shrunken log2 fold change” value was determined as 0.0631.

With RRIRNRPPRLPRPRPRPMYAPRP, the “shrunken log2 fold change” value was -0.192.

For RRIRPRPPRLPRPRPRPCGGPRP, the “shrunken log2 fold change” value is 0.224.

On to RRIRPRPPRLPRPRPRPTPDPRP, for which the “shrunken log2 fold change” value came to 0.356.

In the case of RRIRMRPPRLPRPRPRPMPQPRP, the “shrunken log2 fold change” value is 4.29.

In the case of RRIRRRPPRLPRPRPRPWTLPRP, the “shrunken log2 fold change” value was -0.195.

As for RRIRWRPPRLPRPRPRPKHKPRP, the “shrunken log2 fold change” value was 0.0536.

For the sequence RRIRFRPPRLPRPRPRPDFCPRP, the “shrunken log2 fold change” value was -0.0235.

As for RRIRRRPPRLPRPRPRPLAWPRP, the “shrunken log2 fold change” value came out at 0.226.

With RRIRWRPPRLPRPRPRPHRKPRP, the “shrunken log2 fold change” value turned out to be 0.113.

As to RRIRMRPPRLPRPRPRPLQDPRP, the “shrunken log2 fold change” value was 2.56.

With RRIRMRPPRLPRPRPRPAMWPRP, the “shrunken log2 fold change” value was 0.511.

On to RRIRWRPPRLPRPRPRPCDEPRP, for which the “shrunken log2 fold change” value was -0.0781.

Turning to RRIRWRPPRLPRPRPRPWQDPRP, the “shrunken log2 fold change” value is -0.00695.

RRIRWRPPRLPRPRPRPQHPPRP: the “shrunken log2 fold change” value was 0.0134.

As for RRIRSRPPRLPRPRPRPLWIPRP, the “shrunken log2 fold change” value was -0.497.

Take RRIRLRPPRLPRPRPRPETSPRP: the “shrunken log2 fold change” value was -0.0221.

For the sequence RRIRNRPPRLPRPRPRPGAFPRP, the “shrunken log2 fold change” value was -0.0452.

Take RRIRVRPPRLPRPRPRPQSCPRP: the “shrunken log2 fold change” value was -0.342.

RRIRNRPPRLPRPRPRPECAPRP: the “shrunken log2 fold change” value came to 0.00267.
